According to publication PMC3130014, “The Cryo-EM Structure of a Complete 30S Translation Initiation Complex from Escherichia coli” (PLoS Biology, 2011):

Target: T1, initiation factor 2 (IF2α) from E. coli (E. coli, UniProt P0A705 1-890)
T1 construct: Translation initiation factor IF2, alpha form (IF2α), E. coli; CTD: G2 391-559, G3 560-672, C1 673-779, C2 780-890); source: prepared as described [14]
Test: cryo-EM structure; 30S IC reconstituted from 30S subunits (0.1 µM), IF1 (0.3 µM), IF2α (0.2 µM), IF3 (0.3 µM), 002 mRNA (0.6 µM), fMet-tRNA^fMet (0.6 µM), GDPNP (0.5 mM); 37°C 15 min, buffer A (50 mM Tris-HCl pH 7.5, 70 mM NH4Cl, 30 mM KCl, 7 mM MgCl2); class 2 map at 18.3/15 Å; rigid-body and flexible fitting of a homology model of IF2
Details: both partners purified

T1 sequence (P0A705 whole entry): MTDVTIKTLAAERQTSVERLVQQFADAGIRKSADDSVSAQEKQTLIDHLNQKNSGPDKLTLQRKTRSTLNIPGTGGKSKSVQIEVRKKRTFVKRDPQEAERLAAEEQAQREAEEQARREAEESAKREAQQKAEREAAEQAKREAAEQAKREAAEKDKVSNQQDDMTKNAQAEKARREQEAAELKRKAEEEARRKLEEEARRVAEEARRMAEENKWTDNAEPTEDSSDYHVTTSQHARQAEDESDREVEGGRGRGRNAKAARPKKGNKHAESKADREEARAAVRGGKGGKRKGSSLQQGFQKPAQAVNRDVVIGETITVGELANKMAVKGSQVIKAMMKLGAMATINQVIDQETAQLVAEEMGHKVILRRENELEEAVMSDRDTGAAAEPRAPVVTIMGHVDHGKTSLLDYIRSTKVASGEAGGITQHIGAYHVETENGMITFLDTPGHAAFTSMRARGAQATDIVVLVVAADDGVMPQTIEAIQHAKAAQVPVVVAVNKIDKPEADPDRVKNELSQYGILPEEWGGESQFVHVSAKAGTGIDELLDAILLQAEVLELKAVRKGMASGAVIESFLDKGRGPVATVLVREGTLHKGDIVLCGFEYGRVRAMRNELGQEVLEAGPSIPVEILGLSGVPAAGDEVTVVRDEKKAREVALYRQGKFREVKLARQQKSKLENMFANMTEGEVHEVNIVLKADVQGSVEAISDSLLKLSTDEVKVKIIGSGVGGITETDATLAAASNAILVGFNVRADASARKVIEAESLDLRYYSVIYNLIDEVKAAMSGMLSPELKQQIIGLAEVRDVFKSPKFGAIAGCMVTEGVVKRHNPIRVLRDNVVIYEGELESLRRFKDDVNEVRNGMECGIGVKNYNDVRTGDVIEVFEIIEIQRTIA

B1: initiation factor 1 (IF1) from E. coli (natural protein, UniProt P69222 1-72, looked up)
chain: MAKEDNIEMQGTVLETLPNTMFRVELENGHVVTAHISGKMRKNYIRILTGDKVTVELTPYDLSKGRIVFRSR
notes: Translation initiation factor IF1, E. coli; source: prepared as described [14]
B1: binds.
